Assay results from the supplement of paper PMC9732359.
± gives the uncertainty stated by the source.

Assay: protein stability index of a GFP-peptide fusion (yeast GPS) (PSI 1-4); higher = more stable; sorted into four equal gates, so the index is relative within each strain
Method in brief: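 Plasmids in a pooled yeast library fused tiled 17-residue yeast protein peptides downstream of GFP and also expressed Cherry. Mid-log cultures grown without leucine were sorted into four equal gates by GFP/Cherry fluorescence ratio. Each gate's plasmids were PCR-amplified and Illumina-sequenced, and reads were matched to strains by barcodes. The protein stability index is derived by multiplying each gate's read frequency by its gate number and summing the results.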

Sequence | protein stability index (doa10∆) | protein stability index (pdr5∆) | protein stability index (san1∆) | protein stability index (ubr1∆)
RQLTSLGSKKELGISLE [SNU114] | 3 ± 0.072 | 3.17 ± 0.079 | 3.14 ± 0.097 | 3.36 ± 0.062
YGGDGLDPLEMEGNAQP [RPO31] | 3.39 ± 0.081 | 3.43 ± 0.09 | 3.28 ± 0.07 | 3.29 ± 0.089
FGQASGASTGNANTGFS [YGL172W/NUP49] | 3.18 ± 0.28 | 3.39 ± 0.17 |  | 
GKIRGVEDDLVTVQTEL [SMC2] | 3.1 ± 0.12 | 2.62 ± 0.068 | 2.48 ± 0.077 | 2.85 ± 0.076
LGYPPISLVDDIINAVN [MTW1] | 2.46 ± 0.076 | 2.14 ± 0.065 | 2.44 ± 0.063 | 1.94 ± 0.069
HIEGVVILKKNPDYREE [RPN1] | 2.89 ± 0.086 | 3.07 ± 0.096 | 3.05 ± 0.079 | 3.07 ± 0.066
NLSRYPKSGIDIFVYLT [MTR3] | 2.35 ± 0.049 | 1.97 ± 0.052 | 2.07 ± 0.079 | 2.27 ± 0.054
GEHEKSNILLNSLTKYP [MED1] | 1.45 ± 0.08 | 1.92 ± 0.076 | 1.14 ± 0.25 | 1.69 ± 0.068
KLTILQEGIEAIATTVI [RET1] | 2.79 ± 0.069 | 2.32 ± 0.06 | 2.51 ± 0.082 | 2.78 ± 0.037
PYYKYLCEEYLVNNGQS [RPN7] | 2.86 ± 0.087 | 2.41 ± 0.091 | 2.61 ± 0.088 | 1.77 ± 0.067
NTSAQHVESDKITAKTQ [IRR1] | 2.92 ± 0.05 | 2.99 ± 0.039 | 2.95 ± 0.05 | 3.08 ± 0.042
TFEKHDRVEDICERIFE [RRI2] | 2.68 ± 0.12 | 3.05 ± 0.16 | 3.15 ± 0.23 | 
LLVFRNADLDLDEMELH [YDL116W/NUP84] | 3.01 ± 0.074 | 2.45 ± 0.073 | 3.01 ± 0.054 | 2.73 ± 0.047
IADQDMEDEDMVDVIID [ESC2] | 3.41 ± 0.16 | 3.3 ± 0.079 | 3.15 ± 0.088 | 3.15 ± 0.11
QTLLANSDHAKFTIEPG [SNF2] | 2.35 ± 0.059 | 2.33 ± 0.065 | 2.41 ± 0.1 | 2.37 ± 0.063
AYFLIIVPVISTIENVL [COB] | 1.52 ± 0.057 | 1.75 ± 0.045 | 1.92 ± 0.059 | 2.12 ± 0.07
QLYFKKKVNYKVTSYDI [ISW2] | 2.63 ± 0.058 | 2.56 ± 0.052 | 2.7 ± 0.07 | 2.72 ± 0.047
IIELENINAKMETRINI [YIL149C/MLP2] | 3.06 ± 0.091 | 2.63 ± 0.11 | 2.5 ± 0.069 | 2.62 ± 0.063
EAKKFEPTYRLVRYGLA [RPS24A] | 2.83 ± 0.14 | 3.11 ± 0.095 | 2.79 ± 0.13 | 2.88 ± 0.049
MLLGTDLCSLKPYVDRF [DIS3] | 2.62 ± 0.06 | 2.68 ± 0.066 | 2.66 ± 0.067 | 2.92 ± 0.052
DLVKPKNPKFSNAFYSV [SMC4] | 2.43 ± 0.062 | 2.42 ± 0.064 | 2.26 ± 0.074 | 2.82 ± 0.067
REIQTAVRLILPGELAK [HTB1] | 3.25 ± 0.088 | 3.14 ± 0.06 | 2.55 ± 0.088 | 3.08 ± 0.051
IMQEAGLRAVRKNRYVI [RPT3] | 2.89 ± 0.076 | 2.97 ± 0.099 | 2.91 ± 0.083 | 3.29 ± 0.13
MAGLMHFKKPDITVHGE [RRP45] | 2.89 ± 0.19 | 2.14 ± 0.13 | 1.76 ± 0.16 | 1.25 ± 0.092
KRAFENFKKFNERRKDL [SMC3] | 3.45 ± 0.078 | 3.26 ± 0.068 | 3.51 ± 0.068 | 3.15 ± 0.075
LIYHLKDCAEVDSRTKI [IRR1] | 3.23 ± 0.086 | 3.18 ± 0.072 | 3.02 ± 0.058 | 3.23 ± 0.092
AGGEAGEAEAEKEEEEA [RPP1A] |  | 3.47 ± 0.21 | 2.54 ± 0.22 | 3.5 ± 0.18

Sequence | protein stability index (doa10∆) | protein stability index (pdr5∆) | protein stability index (san1∆) | protein stability index (ubr1∆)
EQQKGQQTAQTQLEQQR [SNF5] | 3.33 ± 0.11 | 3.4 ± 0.088 | 3.22 ± 0.079 | 3.1 ± 0.053
QTGIFVYQNNITPSAMK [RPB5] | 3.06 ± 0.091 | 2.55 ± 0.16 | 3.11 ± 0.075 | 3.36 ± 0.12
DDEHNPTIVGGLYYQRP [AAR2] | 2.66 ± 0.053 | 2.56 ± 0.039 | 2.62 ± 0.036 | 2.96 ± 0.04
VDQEMLYEIILAANYLN [SKP1] | 1.63 ± 0.051 | 1.72 ± 0.05 | 1.92 ± 0.093 | 1.84 ± 0.057
QRARDQDSIDISIKDNK [GAL11] | 3.25 ± 0.1 | 3.12 ± 0.12 | 3.31 ± 0.086 | 3.13 ± 0.086
HDIIEGINAGEIEIPEN [RPL12A] | 2.75 ± 0.071 | 2.52 ± 0.072 | 2.5 ± 0.077 | 2.4 ± 0.06
KKSRSNLSQENDNEGKH [YAR002W/NUP60] | 2.77 ± 0.058 | 3.12 ± 0.052 | 2.91 ± 0.049 | 3.11 ± 0.044
GRYMEALALYVDAYRRL [SRP68] | 1.84 ± 0.074 | 1.91 ± 0.11 | 1.85 ± 0.15 | 1.79 ± 0.077
LCEEYLVNNGQSDLEHD [RPN7] | 2.78 ± 0.11 | 2.63 ± 0.11 | 2.66 ± 0.081 | 2.48 ± 0.12
GCLHKGKLISNLSSTPM [YML031W/NDC1] |  | 1.81 ± 0.16 |  | 2.05 ± 0.19
SSLNGTNAKIPQFDSTQ [SSN3] | 3.06 ± 0.08 | 3 ± 0.093 | 2.98 ± 0.067 | 2.97 ± 0.063
FDFLMNMPNCDYLTLNK [RPN2] | 2.76 ± 0.054 | 2.31 ± 0.068 | 2.07 ± 0.076 | 1.74 ± 0.039
QRRCLHCGALNGVVKKA [RPO31] | 2.35 ± 0.13 | 2.54 ± 0.13 | 2.41 ± 0.12 | 2.59 ± 0.11
ESFAELMTKLNSFKLFK [RPC17] | 3.03 ± 0.1 | 2.71 ± 0.086 | 1.59 ± 0.099 | 2.06 ± 0.081
LATYGLTIDDLGVASFH [FAS2] | 2.97 ± 0.055 | 3.11 ± 0.053 | 2.92 ± 0.044 | 3.11 ± 0.036
TDAGVLALKLELLDFLT [YJL039C/NUP192] | 2.84 ± 0.061 | 2.98 ± 0.078 | 2.96 ± 0.052 | 3.02 ± 0.046
VFALHKYKPTPLYVMDE [SMC4] | 2.6 ± 0.081 | 2.85 ± 0.12 | 3.09 ± 0.076 | 3.07 ± 0.056
EDRPPEYWAQRKKKFVL [ISW2] |  | 3.13 ± 0.19 |  | 
TLSPNVTDSSLLKLLTR [GRR1] | 2.89 ± 0.062 | 2.99 ± 0.07 | 2.83 ± 0.043 | 2.82 ± 0.042
PSTSITLAERQQLAYDL [RPN9] | 2.91 ± 0.045 | 3.09 ± 0.06 | 2.8 ± 0.06 | 2.94 ± 0.033
PISISNAPTFNPKYDTS [YAR002W/NUP60] | 3.03 ± 0.076 | 3.08 ± 0.068 | 2.71 ± 0.059 | 3.07 ± 0.06
TSKSLVKRYRLAPTQLS [SIN4] | 2.63 ± 0.06 | 2.26 ± 0.051 | 2.11 ± 0.077 | 2.66 ± 0.037
KSAMDTFKSVSKYGMLL [POP3] | 2.41 ± 0.063 | 2.87 ± 0.056 | 2.7 ± 0.07 | 2.45 ± 0.055
RLQGIKLLDNIQEYQLC [COR1] | 2.46 ± 0.13 | 2.24 ± 0.092 | 2.06 ± 0.13 | 2.34 ± 0.063
SRQKSGLFDSFTNGVLA [YML031W/NDC1] | 1.68 ± 0.064 | 1.5 ± 0.065 | 1.92 ± 0.12 | 1.49 ± 0.06
GRRWNELRRFESSINTH [SKI6] |  | 2.66 ± 0.12 | 2.01 ± 0.13 | 2.41 ± 0.13
EYNKPNSEKFVFLLTTR [ISW2] | 3.09 ± 0.19 | 2.58 ± 0.099 | 1.59 ± 0.083 | 2.43 ± 0.12
